Results from article PMC12171143, “The Arabidopsis E3 ubiquitin ligase PUB13 synergistically interacts with BON1 to regulate plant flowering and immunity” (Frontiers in Plant Science, 2025).

Target: T1, GST-PUB13 (Arabidopsis thaliana, UniProt Q9SNC6 1-660)
T1 construct: also called PUB13-GST; source: purified fusion protein from pGEX-6p-1; E. coli BL21 is named for the PUB13 construct in pGEX-6P-1 of the ubiquitination assay
T1 sequence (looked up): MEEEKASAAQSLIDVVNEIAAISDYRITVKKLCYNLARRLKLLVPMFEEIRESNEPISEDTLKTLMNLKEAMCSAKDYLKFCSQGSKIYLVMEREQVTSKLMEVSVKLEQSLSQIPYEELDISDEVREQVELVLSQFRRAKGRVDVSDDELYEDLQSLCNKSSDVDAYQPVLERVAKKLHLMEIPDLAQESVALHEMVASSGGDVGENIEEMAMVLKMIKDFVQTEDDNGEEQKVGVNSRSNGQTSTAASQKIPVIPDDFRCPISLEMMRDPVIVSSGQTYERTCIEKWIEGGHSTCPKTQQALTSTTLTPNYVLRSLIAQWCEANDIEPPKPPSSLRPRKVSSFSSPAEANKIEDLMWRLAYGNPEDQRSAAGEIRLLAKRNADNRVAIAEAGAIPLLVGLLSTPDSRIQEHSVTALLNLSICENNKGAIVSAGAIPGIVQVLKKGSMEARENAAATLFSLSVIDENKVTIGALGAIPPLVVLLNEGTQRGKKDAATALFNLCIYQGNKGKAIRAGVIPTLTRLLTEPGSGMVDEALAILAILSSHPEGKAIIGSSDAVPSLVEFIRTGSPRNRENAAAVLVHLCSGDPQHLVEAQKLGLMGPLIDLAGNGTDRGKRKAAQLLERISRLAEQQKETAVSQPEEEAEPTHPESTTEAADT
Test: pull-down; purified fusion proteins mixed, glutathione Sepharose beads 4 h at 4°C, five washes with 1x TBST, eluate blotted with anti-MBP
Details: both partners purified

binding result: binds
B1: MBP-BON1 (natural protein, Arabidopsis thaliana, UniProt Q941L3 1-578, looked up)
chain: MGNCCSDVASGAGATAGVGGSGSSAALGATNDALDYYLKSKGFNGLFSQIELSFSASNLRDRDVLSKSDPMVVVYQKEKDATLSEVFRSEVVLNSLAPKWIKKFIVAYHFETVQTLVFRVYDVDTKFQNSREEMLKLDEQQFLGEATCALSEIITKSTRTSTLELKRKDGFAPQAQPHHGKLIIHAEESLASKISTEIVFRCSNLESKDLFSKSDPFLVVSKIVEHGTPIPVSKTEVRKNDLNPIWKPVFLSVQQVGSKDSPVIIECSDFNSNGKHSLIGKVQKSLSDLEKLHLAGQGINFSLPTGAGQNKVLKSQLFVDKFTETVHHTFLEYLASGFELNFMVAIDFTASNGNPRLPDSLHYIDPSGRLNAYQRAIMDVGEVLQFYDSDKRFPAWGFGARPIDAPVSHCFNLNGSSSYSEVDGIQGIMTSYTSALFNVSLAGPTLFGPVINAAAMIASASLAQGSRKYYVLLIITDGVITDLQETKDALVSASDLPLSILIVGVGGADFKEMEILDADKGERLESSSGRLASRDIVQFVALRDVQYGEISVVQALLAELPSQFLTYMRIRNMKPIPP
notes: source: purified fusion protein from pMAL-c4x
